Residue numbers refer to the chain shown, from its start. In names and notes the source's numbering stands.
B1: DraE T88M (N77K) I111H (ligand)
chain: GFTPSGTTGTTKLTVTEECQVRVGDLTVAKTRGQLTDAAPIGPVTVQALGCDARQVALKADTDNFEQGKFFLISDNKRDKLYVNIRPMDNSAWTTDNGVFYKNDVGSWGGHIGIYVDGQQTNTPPGNYTLTLTGGYWAK
B2: DraE T88M G118S I85L (ligand)
chain: B1 chain with I85L, H111I, G118S
B3: combined mutant F100S T11I D37G (on DraE T88M N77K) (ligand)
chain: B1 chain with T11I, D37G, F100S, H111I
notes: also called F1005 T11I D37G
B4: combined mutant T95E T123I (on DraE T88M N77K) (ligand)
chain: B1 chain with T95E, H111I, T123I
notes: also called T95E T1231
B5: DraE T88M Q34L N84S (ligand)
chain: B1 chain with Q34L, N84S, H111I
B6: combination mutant F100I T123I (on DraE T88M N77K) (ligand)
chain: B1 chain with F100I, H111I, T123I

molecular target: T1, N-terminal domain of CEA (Homo sapiens (Human), UniProt P06731 35-144); experiment: yeast two-hybrid screen against N-CEA
T1 construct: Target of the yeast two-hybrid screens; synthetic gene, codon-optimised for S. cerevisiae, cloned into a yeast TH vector; The fusion partner of the vector is not described; also called N-CEA; CEACAM5
T1 sequence: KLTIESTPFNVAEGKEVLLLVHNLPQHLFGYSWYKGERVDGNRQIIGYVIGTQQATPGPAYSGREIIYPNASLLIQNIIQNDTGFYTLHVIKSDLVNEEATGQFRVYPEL

Row | Binder | binding result
1 | B1 | binds

molecular target: T1, N-terminal domain of CEA; experiment: yeast two-hybrid, FDG rescreening

Row | Binder | binding result
2 | B2 | binds
3 | B3 | binds
4 | B4 | binds
5 | B5 | binds
6 | B6 | binds

Source: patent US20110110856A1 (SIGNALOMICS, published 2011)
